# US20240327502A1
# Positions count from the first letter of the chain named.
# B1: M4A02 (antibody, V domains shown)
# VH: EVQLVESGGGLVEPGGSLRLSCAASGFMFTSYAMHWVRQAPGRGLEWVSSITGGGNFVEYAVSVQGRFTVSRDNNQNSLYLQMNSLRVEDTAMYYCAREDYNSGANLHWFDPWGQGTLVTVSS
# VL: QSVLTQPPSVSGAPGQRVTISCTGSSSNIGAFFDVHWYSHLPGTAPKLLIYGDRNRPSGVPERFSGSKSGASASLTITGLRAEDEADYYCQSYDRGLSAWVFGGGTRVTVL
# B2: M3A06 (antibody, V domains shown)
# VH: EVQLVESGGGLVKPGGSLRLSCAASGFTLTSYSMNWVRQAPGKGLEWVSSISSSSSYIHYADSVKGRFTISRDNAKNSVYLQMNSLRAEDTAAYYCARVARELDPFDMWGQGTVVTVAS
# VL: QSVLTQPPSVSGAPGQRVTISCTGSSSNIGAGYDVHWYQQLPGTAPKLLVYANNNRPSGVPDRFSGSKSGTSASLAITGLQADDEADYYCQSYDRSLSGSVFGGGTKLTVL
# B3: M3B02 (antibody, V domains shown)
# VH: EVQLVESGGGLVKPGGSLRISCVASEFTLSGYAMNWVRQVPGKGLEWVSSISSSSSYINYADFVKGRFTISRDNAKNSVFLQLNSLRPEDTALYYCVRERPTAILPYLDLWGRGTLVTVSS
# VL: B2 VL with H36Q, L41S, V50I, Y51H, A52G, D83E, S100W
# B4: M4A05 (antibody, V domains shown)
# VH: EVQLVESGGGLVKPGGSLRLSCAAFGFSLSGYGMNWVRQAPGKGLQWVSSITASSSYITYRDSLRGRFTISRDNAQNSLYLDMTALRVEDTAVYYCATNGKLPPYFDHWGQGVLVVVSS
# VL: QSVLTQPPSVSGAPGQRVTISCTGSGSNIGAGYDVHWYQQLPGTAPKLLIYDNNHRASGVPDRVSASWSGTSASLAITGLQAEDEADYYCQSYDRNLEGVVFGGGTKLTVL
# B5: M4A11 (antibody, V domains shown)
# VH: QVQLVQSGSEVKRPGASVRVSCTASGYTFSNYGVSWMRQAPGHGLEWMGWISTHNQNVRYSQNFQGRVTVTTDTSTSTAYMDLRGLKPDDTAVYFCARMIPVGTTYTPYWTGWTPGGMDIWGQGTTVIVSS
# VL: QSVLTQPPSASGTPGQRVIMSCSGTTSNIGRNFVYWYQQLPKEAPTLLIYGNDQRPAGVPDRFSGSTSGTSASLAISGLRSGDEADYYCATWDDSVNGPVFGGGTKLTVL
# Substrate: F protein of RSV B/Washington virus (respiratory syncytial virus B, Washington strain)
# Test: cell-based or functional assay
row,Binder,PRNT IC50 [ng/mL]
1,B1,36.4
2,B2,27.4
3,B3,15.3
4,B4,29.5

# Substrate: F protein of hMPV A virus (human metapneumovirus subtype A)
# Test: cell-based or functional assay
row,Binder,PRNT IC50 [ng/mL]
1,B1,186
2,B5,> 10000
3,B2,310
4,B3,1060
5,B4,56.9

# Substrate: F protein of hMPV B virus (human metapneumovirus subtype B)
# Test: cell-based or functional assay
row,Binder,PRNT IC50 [ng/mL]
1,B1,92.7
2,B5,> 10000
3,B2,416
4,B3,1540
5,B4,42.5
